For one substance, stoichiometry N results are on record in publication doi:10.1101/2023.10.23.563578.

The assay has as its target recombinant Ena3A (major subunit of L-ENA fibers) (Bacillus paranthracis NVH 0075-95). The assay can be described thus: cryo-EM structure.

One may read the stoichiometry N as a count of units in the complex or per binding partner. Take “recombinant Ena3A (major subunit of L-ENA fibers) (natural protein)”: the stoichiometry N turned out to be 7.
